Measurements reported in patent US20190276531A1.

Key:
[1] = biological target: R-PE-labeled human TIM-3-Fc chimera protein (R&D Systems) (human) (UniProt Q8TDQ0); experiment: flow cytometry competition; R-PE TIM-3-Fc preincubated with 3.125 µg/ml antibody, then apoptotic Jurkat cells showing phosphatidylserine
[2] = biological target: R-PE-labeled human TIM-3-Fc chimera protein (R&D Systems) (human) (UniProt Q8TDQ0); experiment: flow cytometry competition: R-PE-labelled TIM-3-Fc pre-mixed with titrated antibody, then binding to phosphatidylserine-positive apoptotic Jurkat cells; blocked ligand: phosphatidylserine [continued) C]
[3] = biological target: R-PE-labeled human TIM-3-Fc chimera protein (R&D Systems) (human) (UniProt Q8TDQ0); experiment: flow cytometry competition: R-PE-labelled TIM-3-Fc pre-mixed with titrated antibody, then binding to phosphatidylserine-positive apoptotic Jurkat cells (MFI); blocked ligand: phosphatidylserine; unit taken from the axis log(Concentration) µg/ml [continued) C]
[4] = biological target: human TIM-3 ECD fused C-terminally to human IgG1 Fc (made in-house, ExpiCHO) (human) (UniProt Q8TDQ0); experiment: SPR (IBIS MX96); TIM-3 ECD-Fc captured on anti-human IgG Fc sensor, Fab injected 1-100 nM; 1:1 Langmuir fit
[5] = biological target: cynomolgus TIM-3 ECD fused C-terminally to human IgG1 Fc (made in-house, ExpiCHO) (cynomolgus monkey (Macaca fascicularis); human); experiment: as above
Chain of cynomolgus TIM-3 ECD fused C-terminally to human IgG1 Fc (made in-house, ExpiCHO) (cynomolgus monkey (Macaca fascicularis); human) (chain, as listed by the source limits assumed): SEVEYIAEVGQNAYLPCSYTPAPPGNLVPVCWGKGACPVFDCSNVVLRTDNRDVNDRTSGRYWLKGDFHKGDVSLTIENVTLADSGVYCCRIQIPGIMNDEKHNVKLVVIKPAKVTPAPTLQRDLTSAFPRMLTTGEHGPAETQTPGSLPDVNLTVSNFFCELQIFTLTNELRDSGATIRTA

[6] = biological target: cynomolgus TIM-3 Fc fusion antigen (Sino Biologicals) (cynomolgus monkey (Macaca fascicularis)); experiment: ELISA; EC50 on cynomolgus TIM-3 over EC50 on human TIM-3
[7] = biological target: human TIM-3 Fc fusion antigen (Sino Biologicals) (human) (UniProt Q8TDQ0); experiment: ELISA; TIM-3 Fc fusion coated at 1 µg/ml, antibody titrated 2-fold from 1000 nM, HRP secondary
[8] = biological target: cynomolgus TIM-3 Fc fusion antigen (Sino Biologicals) (cynomolgus monkey (Macaca fascicularis)); experiment: as above

“reference anti-TIM-3 antibody 18571.18571 (humanized ABTIM3 analogue)” gave a TIM-3-Fc binding to PtdS-positive cells left, % of the binding with non-blocking antibody 15338.15338 [1] of 3.2%, a TIM-3 binding (MFI) at 0.003 µg/ml antibody [2] of 8700 MFI and a TIM-3 binding (MFI) at 0.012 µg/ml antibody [2] of 8730 MFI. For the same substance, the TIM-3 binding (MFI) at 0.049 µg/ml antibody [2] was 8890 MFI, the TIM-3 binding (MFI) at 0.195 µg/ml antibody [2] was 8800 MFI and the TIM-3 binding (MFI) at 0.781 µg/ml antibody [2] was 4480 MFI. It also gave a TIM-3 binding (MFI) at 3.125 µg/ml antibody [2] of 184 MFI, a TIM-3 binding (MFI) at 12.5 µg/ml antibody [2] of 160 MFI and a TIM-3 binding (MFI) at 50 µg/ml antibody [2] of 157 MFI. The IC50 [3] was 0.782 µg/mL.

For “Fab fragment of 18564 ABTIM3 (reference analogue)”, the Kd [4] was 0.77 nM and the Kd [5] was 25 nM.

“reference antibody analogue 18564 ABTIM3” showed a Ratio Cynomolgus/Human EC50 [6] of 1, an EC50 [7] of 0.07 nM and an EC50 [8] of 0.07 nM.
